From the nanobody polyreactivity screen of Harvey et al. (2022)

Test: yeast display, Sf9 membrane polyspecificity reagent, FACS + sequencing; frameworks hold sequencing errors
Outline: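 A nanobody's polyreactivity label depends on the gate it was sorted from. Yeast display cells were stained with 10% biotinylated, detergent-solubilized Sf9 membrane reagent for 1 hour at 4 °C, enriched on streptavidin microbeads and sorted by FACS. The low and high (top ~1%) gates were set on anti-HA fluorescence for expression and streptavidin fluorescence for reagent binding.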

Sequence: QVQLVESGRGLVQAGGSLRLSCASSGSTFRWNAMGWYRQAPGKERELVAAISQSGSSTYYADSVKGRFTISRDNAKNTVYLQMNSLKPEDTAVYYCAARTGRKYYYWGQGTQVTVSS
- polyreactivity (PSR sort gate): low polyreactivity

Sequence: QVQLVESGGGLVQAGGSLRLICAASGYIFATYAMGWYRQAPGKERELVAAITSTGSTYYADSVKGRFTISRDNAKNTVYLQMNSLKPEDTAVYYCAAVSGYRARYYLYYYWGQGTQVTVSS
- polyreactivity (PSR sort gate): high polyreactivity

Sequence: QVQLVESGGGLVQAGGSLRLSCAASGSNFRYNAIGWYRQAPGKERELVAAISWSGGSTYYADSVKGRFTISRDNAKNTVYLQMNSLKPEDTAVYYCATRYYGIVPGRRYGYWGQGTQVTVSS
- polyreactivity (PSR sort gate): low polyreactivity

Sequence: QVQLVESGGGLVQAGGSLRLSCAASGRIFGWYAMGCYIQAPGKERELVAAISSNGGSTYYADSVKGRFTISRDNAKNTVYLQMNSLKPEDTAVYYCAAVRVFQYKYDRFNYWGQGTQVTVSS
- polyreactivity (PSR sort gate): high polyreactivity

Sequence: QVQLVESGGGLVQAGGSLRLSCAASGRTFYAYDMGWYRQAPGKERELVAAINSGDRTNYADSVKGRFTISRDNAKNTDYLQMNSLKPEDTAVYYCAADWYTPQGVGLDYWGQGTQVTVSS
- polyreactivity (PSR sort gate): low polyreactivity

Sequence: QVQIVESGGGLVQAGGRLRLSCAASGFTLYRYAMGWYRQAPGKEREFVAAITRTGGTTYYADSVKGRFTISRDNAKNTVYLQMNSLKPEDTAVYYCAAGANAWYSYRYDYWGQGTQVTVSS
- polyreactivity (PSR sort gate): high polyreactivity

Sequence: QVQLVESGGGLVQAGGSLRLSCAASGSTIYFNAMGWYRQAPGKERELVAAIDWSGGSTYYADSVKGRFTISRDNAKNTFYLHMNSLKPEDTAVYYCAAAYHYYGNTVGYADYDYWGQGNQVTVSS
- polyreactivity (PSR sort gate): low polyreactivity

Sequence: QVQLVESGGGLVQAGGSLRLSCAASGGIFHGYVMGWYRQEPGKERELVASIRTRGVRTYYADSVKGRFTISRDNAKNTVYLQMNSLKPEDTAVYYCNARGQVYSTLSSYRYDYWGQGTQVTVSS
- polyreactivity (PSR sort gate): high polyreactivity

Sequence: QVQLVESGGGLVQAGGSLRLSCAASGSTFDANDMGWYRQAPGKERELVAAITIGGGSTYYADSVKGRFTISRDNAKNTVYLQMNSLKPEDTAVYYCAKDDHTGVHTYPVDYWGQGTQVTVSS
- polyreactivity (PSR sort gate): low polyreactivity

Sequence: QGQLVESGGGLVQAGGSLRLSCAASGFTFSPYAMGSYRQAPGKERELVAVISGGGSTYYADSVKGRFTISRDNAKNTVYLQMNSLKPEDTAVYYCAKRFYRSYYWGQGTQVTVSS
- polyreactivity (PSR sort gate): high polyreactivity

Sequence: QVQLVESGGGLVQAGGSLRLSCAASGSNLVTNSMGWYRQAPGKERELVATITSSGTSTYYADSVKGRFTISRDNAKNTVYLQMNSLKPEDTAVYYCNADDQFAYVVYLWEYHIVQYDYWGQGTQVTVSS
- polyreactivity (PSR sort gate): high polyreactivity

Sequence: QVQLVESGGGLVQAGGSLRLSCAASGFIFDGYAMGWYRQAPGKERELVAAIDSGGDRTYYADSVKGRFTISRDNAMNTVYLQMNSLKPEDTAVYYCAADSSDPTGYDYWGQGTQVTVSS
- polyreactivity (PSR sort gate): low polyreactivity

Sequence: QVQLLESGGGLVQAGGSLRLTCAASGNIFISYAMAWYRQAPGKERELVAAISRSGGSTYYADSVKGRFTISRDNAKNTVYLQMNSLKPEDTAVYYCAAYIGPGRYGSWGQGTQVTVSS
- polyreactivity (PSR sort gate): high polyreactivity

Sequence: QVQLVESGGGLVQAGGSLRLSCAASGFTLARYAMGWYRQATGKERELVAAITKRGGSTYYADSVKGRFTISRDNAMNTVYLQMNSLKPEDTAVYYCATYKRSSHYDYWGQGTQVTVSS
- polyreactivity (PSR sort gate): high polyreactivity

Sequence: QVQLVESGGGLVQAGGSLRLSCAASGRIFLWNAMGWYRQAPGKERELVAGIRWSTGSTYYADSVKGRFTISRDNAKNTVYLQKNSLKREDTAVYYCNARSFATGSKVPARGYWGQGTQVTVSS
- polyreactivity (PSR sort gate): high polyreactivity

Sequence: QVQLVESGGGLVQAGGSLRLSCAACGSTFSPNAMGWYRQAPGKERELVAAISGSGASTYYADSVKGRFTISRDNAKNTVYLQMNSLKPEDTAVYYCAADKPGIFSRFDYWGQGTQVTVSS
- polyreactivity (PSR sort gate): low polyreactivity

Sequence: QVQLVESGGGLVQAGGSLRLSCAASGRIFGYNAMGWYRQAPGKERELVAAINSDGSKNYADSVKGRFTISRDNAKNTVYLQINSLNPEDTAVYYCAARWISVWSEGAEHDYWGQGTQVTVSS
- polyreactivity (PSR sort gate): low polyreactivity
